Starred links: 1 amine or outer side, 2 acyl side, 3 side chain; linkers in the order of their positions; H or OH if unused. Positions of bridges follow the written chain, without caps; N, C: chain ends. Non-standard residues stand in square brackets, D forms with d. Primed or numbered codes have the meaning given here. PyrS2″ = (S)-3-amino-1-((pent-4-en-1-yloxy)carbonyl)pyrrolidine-3-carboxylic acid (stapling residue), C=CCCCOC(=O)N1CC[C@@](N[*:1])(C(=O)[*:2])C1; B5(4) = 2,2-bis(4-pentenyl)glycine = 2-amino-2-(pent-4-en-1-yl)hept-6-enoic acid (stitching residue), C=CCCCC(CCCC=C)(N[*:1])C(=O)[*:2]; B5(5) = 2,2-bis(4-pentenyl)glycine, 2-amino-2-(pent-4-en-1-yl)hept-6-enoic acid (stitching residue), C=CCCCC(CCCC=C)(N[*:1])C(=O)[*:2]; PyrS2 = (S)-3-amino-1-((pent-4-en-1-yloxy)carbonyl)pyrrolidine-3-carboxylic acid, C=CCCCOC(=O)N1CC[C@@](N[*:1])(C(=O)[*:2])C1; B5(27) = 2-amino-2-(pent-4-en-1-yl)hept-6-enoic acid (two alkene side-chain arms), C=CCCCC(CCCC=C)(N[*:1])C(=O)[*:2]; F2PipAbu = (S)-2-amino-4-(4,4-difluoropiperidin-1-yl)butanoic acid, O=C([C@H](CCN1CCC(F)(F)CC1)N[*:1])[*:2]; MorphAsn = (S)-2-amino-4-morpholino-4-oxobutanoic acid, O=C(C[C@H](N[*:1])C(=O)[*:2])N1CCOCC1; Phe(3-COOH) = N[C@@H](Cc1cccc(C(=O)O)c1)C(=O)O; Bta = N[C@@H](Cc1csc2ccccc12)C(=O)O; αAllylPro = C=CC[C@@]1(C(=O)O)CCCN1; tBuAla = CC(C)(C)C[C@H](N)C(=O)O; 3Thi = N[C@@H](Cc1ccsc1)C(=O)O; Cha = N[C@@H](CC1CCCCC1)C(=O)O; S8 = C=CCCCCCC[C@](C)(N)C(=O)O; PyrS2(4) = not defined here; hSer = N[C@@H](CCO)C(=O)O; Nle = CCCC[C@H](N)C(=O)O Where only a bound is given, the exact number is not on record here.

26 molecules from patent US20240116985A1 (published 2024) can be followed below.

Test [1] has as its target T1, B-cat-Halo (beta-catenin HaloTag NanoBRET construct expressed in HEK293 cells) (UniProt P35222 1-781, HaloTag NanoBRET 618 Ligand bound to the HaloTag).
T1 sequence (looked up): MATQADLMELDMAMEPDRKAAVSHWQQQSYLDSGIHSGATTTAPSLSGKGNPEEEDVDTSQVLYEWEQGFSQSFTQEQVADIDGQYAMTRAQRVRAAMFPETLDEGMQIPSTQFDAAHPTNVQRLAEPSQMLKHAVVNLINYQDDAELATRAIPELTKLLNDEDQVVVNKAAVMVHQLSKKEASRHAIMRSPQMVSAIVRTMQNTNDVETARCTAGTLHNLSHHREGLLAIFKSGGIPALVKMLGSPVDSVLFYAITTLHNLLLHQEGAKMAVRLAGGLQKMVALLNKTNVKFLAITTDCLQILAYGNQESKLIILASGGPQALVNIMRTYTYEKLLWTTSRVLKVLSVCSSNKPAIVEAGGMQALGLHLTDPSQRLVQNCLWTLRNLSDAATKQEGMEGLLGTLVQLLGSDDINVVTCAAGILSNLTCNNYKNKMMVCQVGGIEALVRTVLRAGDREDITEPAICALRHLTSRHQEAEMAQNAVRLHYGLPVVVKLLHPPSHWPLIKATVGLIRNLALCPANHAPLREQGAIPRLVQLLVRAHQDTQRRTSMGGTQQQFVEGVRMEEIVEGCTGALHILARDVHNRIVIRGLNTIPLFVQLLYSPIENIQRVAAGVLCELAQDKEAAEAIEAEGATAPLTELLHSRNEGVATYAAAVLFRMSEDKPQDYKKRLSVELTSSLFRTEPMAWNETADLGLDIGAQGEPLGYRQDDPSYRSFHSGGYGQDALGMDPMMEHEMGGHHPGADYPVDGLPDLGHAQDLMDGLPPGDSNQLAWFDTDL
Kind of test: cell-based or functional assay.

A further test addresses T2, Bcat-Halo (UniProt P35222 1-781).
T2 sequence (looked up): T1 sequence (looked up)
Kind of test: cell-based or functional assay.

B1: I-1515: Ac-PL3-Asp-Thr-B5-Asp-Asp-Ala-Ala-Phe-Leu-PyrS2-3Thi-BztA-Gln-NH2 (peptide)
peptide: Ac-[αAllylPro]DT[B5(5)]DDAAFL[PyrS2″][3Thi][Bta]Q-NH2
modifications: staple 1-4, 4-11
Take B1: the “NanoBRET Abs IC50” value in test [1] was > 20 µM.

B2: I-1511: Ac-PL3-Asp-Tyr-B5-Asp-Asp-Ala-Ala-Phe-Leu-PyrS2-3Thi-BztA-Gln-NH2 (peptide)
peptide: Ac-[αAllylPro]DY[B5(27)]DDAAFL[PyrS2][3Thi][Bta]Q-NH2
modifications: staple 1-4, 4-11
For B2, in test [1], the “NanoBRET Abs IC50” value was > 20 µM.

B3: I-2129 (peptide)
peptide: Ac-[αAllylPro]D[tBuAla][B5(4)]DWAA[Phe(3-COOH)]L[PyrS2″][3Thi][Bta]Q-NH2
modifications: staple 1-4, 4-11
For the molecule B3, in the test with Bcat-Halo, the “NanoBRET Abs IC50” value was determined as 44 µM.

B4: I-1524: Ac-PL3-Asp-nLeu-B5-Asp-Glu-Ala-Ala-Phe-Hse-S8-Phe-BztA-Gln-NH2 (peptide)
peptide: Ac-[αAllylPro]D[Nle][B5(5)]DEAAF[hSer][S8]F[Bta]Q-NH2
modifications: staple 1-4, 4-11; also: staple isomer, earlier eluting HPLC peak
As to B4, the “NanoBRET Abs IC50” value in test [1] amounted to 8.1 µM.

B5: I-1523: Ac-PL3-Asp-nLeu-B5-Asp-Glu-Ala-Ala-Phe-Leu-S8-Phe-BztA-Gln-NH2 (peptide)
peptide: Ac-[αAllylPro]D[Nle][B5(5)]DEAAFL[S8]F[Bta]Q-NH2
modifications: staple 1-4, 4-11
For the molecule B5, in test [1], the “NanoBRET Abs IC50” value amounted to 8 µM.

B6: I-1507: Ac-PL3-Asp-Npg-B5-Asp-Asp-Ala-MorphAsn-Phe-Leu-PyrS2-3Thi-BztA-Gln-NH2 (peptide)
peptide: Ac-[αAllylPro]D[tBuAla][B5(27)]DDA[MorphAsn]FL[PyrS2][3Thi][Bta]Q-NH2
modifications: staple 1-4, 4-11
In the case of B6, the “NanoBRET Abs IC50” value in test [1] is > 20 µM.

B7: I-2127 (peptide)
peptide: Ac-[αAllylPro]D[tBuAla][B5(4)]DWAA[Phe(3-COOH)]N[PyrS2″][3Thi][Bta]Q-NH2
modifications: staple 1-4, 4-11
For the molecule B7, in the test with Bcat-Halo, the “NanoBRET Abs IC50” value is 40.8 µM.

B8: I-1520: Ac-PL3-Asp-Cha-B5-Asp-Asp-Ala-Ala-Phe-Leu-PyrS2-3Thi-BztA-Hse-NH2 (peptide)
peptide: Ac-[αAllylPro]D[Cha][B5(5)]DDAAFL[PyrS2(4)][3Thi][Bta][hSer]-NH2
modifications: staple 1-4, 4-11; not fully specified; printed as I-1520: Ac-PL3-Asp-Cha-B5-Asp-Asp-Ala-Ala-Phe-Leu-PyrS2-3Thi-BztA-Hse-NH2; reading uncertain
As to B8, the “NanoBRET Abs IC50” value in test [1] came to 17.4 µM.

B9: I-2128 (peptide)
peptide: Ac-[αAllylPro]D[tBuAla][B5(4)]DWAA[Phe(3-COOH)][hSer][PyrS2″][3Thi][Bta]Q-NH2
modifications: staple 1-4, 4-11
Consider B9, for which the “NanoBRET Abs IC50” value with Bcat-Halo worked out at 27 µM.

B10: I-1522: Ac-PL3-Asp-nLeu-B5-Asp-Glu-Ala-Ala-Phe-Gln-S8-Phe-BztA-Gln-NH2 (peptide)
peptide: Ac-[αAllylPro]D[Nle][B5(5)]DEAAFQ[S8]F[Bta]Q-NH2
modifications: staple 1-4, 4-11
As for B10, the “NanoBRET Abs IC50” value in test [1] came out at 5.8 µM.

B11: I-2122 (peptide)
peptide: Ac-[αAllylPro]D[tBuAla][B5(4)]DHAA[Phe(3-COOH)]L[PyrS2″][3Thi][Bta]Q-NH2
modifications: staple 1-4, 4-11; also: earlier eluting HPLC isomer composition
As to B11, the “NanoBRET Abs IC50” value with Bcat-Halo came out at 34.4 µM.

B12: I-2126 (peptide)
peptide: Ac-[αAllylPro]D[tBuAla][B5(4)]DYAA[Phe(3-COOH)]L[PyrS2″][3Thi][Bta]Q-NH2
modifications: staple 1-4, 4-11
As for B12, the “NanoBRET Abs IC50” value with Bcat-Halo is 29.5 µM.

B13: I-2125 (peptide)
peptide: Ac-[αAllylPro]D[tBuAla][B5(4)]DYAA[Phe(3-COOH)][hSer][PyrS2″][3Thi][Bta]Q-NH2
modifications: staple 1-4, 4-11; also: later eluting HPLC isomer composition
B13: the “NanoBRET Abs IC50” value in the test with Bcat-Halo worked out at 41.2 µM.

B14: I-1519: Ac-PL3-Asp-Cha-B5-Asp-Asp-Ala-Ala-Phe-Leu-PyrS2-3Thi-BztA-Gln-NH2 (peptide)
peptide: Ac-[αAllylPro]D[Cha][B5(5)]DDAAFL[PyrS2″][3Thi][Bta]Q-NH2
modifications: staple 1-4, 4-11
Regarding B14, the “NanoBRET Abs IC50” value in test [1] came out at 12.8 µM.

B15: I-2123 (peptide)
peptide: Ac-[αAllylPro]D[tBuAla][B5(4)]DHAA[Phe(3-COOH)]L[PyrS2″][3Thi][Bta]Q-NH2
modifications: staple 1-4, 4-11; also: later eluting HPLC isomer composition
As for B15, in the test with Bcat-Halo, the “NanoBRET Abs IC50” value was determined as 26.9 µM.

B16: I-1510: Ac-PL3-Asp-Phe-B5-Asp-Asp-Ala-Ala-Phe-Leu-PyrS2-3Thi-BztA-Hse-NH2 (peptide)
peptide: Ac-[αAllylPro]DF[B5(27)]DDAAFL[PyrS2][3Thi][Bta][hSer]-NH2
modifications: staple 1-4, 4-11
B16: in test [1], the “NanoBRET Abs IC50” value turned out to be 31.8 µM.

B17: I-1516: Ac-PL3-Asp-Thr-B5-Asp-Asp-Ala-Ala-Phe-Leu-PyrS2-3Thi-BztA-Hse-NH2 (peptide)
peptide: Ac-[αAllylPro]DT[B5(5)]DDAAFL[PyrS2″][3Thi][Bta][hSer]-NH2
modifications: staple 1-4, 4-11
For B17, the “NanoBRET Abs IC50” value in test [1] was > 20 µM.

B18: I-1521: Ac-PL3-Asp-nLeu-B5-Asp-Glu-Ala-Ala-Phe-Gln-S8-Phe-BztA-Gln-NH2 (peptide)
peptide: Ac-[αAllylPro]D[Nle][B5(5)]DEAAFQ[S8]F[Bta]Q-NH2
modifications: staple 1-4, 4-11; also: staple isomer, earlier eluting HPLC peak
As to B18, the “NanoBRET Abs IC50” value in test [1] worked out at 6 µM.

B19: I-1518: Ac-PL3-Asp-Asn-B5-Asp-Asp-Ala-Ala-Phe-Leu-PyrS2-3Thi-BztA-Hse-NH2 (peptide)
peptide: Ac-[αAllylPro]DN[B5(5)]DDAAFL[PyrS2″][3Thi][Bta][hSer]-NH2
modifications: staple 1-4, 4-11
As to B19, the “NanoBRET Abs IC50” value in test [1] was determined as 24.2 µM.

B20: I-1512: Ac-PL3-Asp-Tyr-B5-Asp-Asp-Ala-Ala-Phe-Leu-PyrS2-3Thi-BztA-Hse-NH2 (peptide)
peptide: Ac-[αAllylPro]DY[B5(5)]DDAAFL[PyrS2″][3Thi][Bta][hSer]-NH2
modifications: staple 1-4, 4-11
For the molecule B20, the “NanoBRET Abs IC50” value in test [1] is > 20 µM.

B21: I-1517: Ac-PL3-Asp-Asn-B5-Asp-Asp-Ala-Ala-Phe-Leu-PyrS2-3Thi-BztA-Gln-NH2 (peptide)
peptide: Ac-[αAllylPro]DN[B5(5)]DDAAFL[PyrS2″][3Thi][Bta]Q-NH2
modifications: staple 1-4, 4-11
In the case of B21, the “NanoBRET Abs IC50” value in test [1] was > 20 µM.

B22: I-1505: Ac-PL3-Asp-Npg-B5-Asp-Asp-Ala-F2PipAbu-Phe-Leu-PyrS2-3Thi-BztA-Gln-NH2 (peptide)
peptide: Ac-[αAllylPro]D[tBuAla][B5(27)]DDA[F2PipAbu]FL[PyrS2][3Thi][Bta]Q-NH2
modifications: staple 1-4, 4-11
With B22, the “NanoBRET Abs IC50” value in test [1] was > 20 µM.

B23: I-1513: Ac-PL3-Asp-Ser-B5-Asp-Asp-Ala-Ala-Phe-Leu-PyrS2-3Thi-BztA-Gln-NH2 (peptide)
peptide: Ac-[αAllylPro]DS[B5(5)]DDAAFL[PyrS2″][3Thi][Bta]Q-NH2
modifications: staple 1-4, 4-11
On to B23, for which the “NanoBRET Abs IC50” value in test [1] was > 20 µM.

B24: I-1509: Ac-PL3-Asp-Phe-B5-Asp-Asp-Ala-Ala-Phe-Leu-PyrS2-3Thi-BztA-Gln-NH2 (peptide)
peptide: Ac-[αAllylPro]DF[B5(5)]DDAAFL[PyrS2(4)][3Thi][Bta]Q-NH2
modifications: staple 1-4, 4-11; not fully specified; printed as I-1509: Ac-PL3-Asp-Phe-B5-Asp-Asp-Ala-Ala-Phe-Leu-PyrS2-3Thi-BztA-Gln-NH2; reading uncertain
On to B24, for which, in test [1], the “NanoBRET Abs IC50” value is 24.5 µM.

B25: I-1525: Ac-PL3-Asp-nLeu-B5-Asp-Glu-Ala-Ala-Phe-Hse-S8-Phe-BztA-Gln-NH2 (peptide)
peptide: Ac-[αAllylPro]D[Nle][B5(5)]DEAAF[hSer][S8]F[Bta]Q-NH2
modifications: staple 1-4, 4-11
As for B25, the “NanoBRET Abs IC50” value in test [1] was found to be 10.8 µM.

B26: I-2124 (peptide)
peptide: Ac-[αAllylPro]D[tBuAla][B5(4)]DYAA[Phe(3-COOH)][hSer][PyrS2″][3Thi][Bta]Q-NH2
modifications: staple 1-4, 4-11; also: earlier eluting HPLC isomer composition
On to B26, for which the “NanoBRET Abs IC50” value in the test with Bcat-Halo turned out to be 38.9 µM.
